Experimental data from the RNAGym collection of RNA variant scans (doi:10.7554/elife.90254).

B1: OR4K15 (parent)
chain: GUUAACGGUCAUAGGCCAUGGAAACUAGGAGCACCAUUUCGCUGCCAGUGAAGAAAUGAACAAAGAAAAUCUGGGCCAGGCAGGCAUCAAAAGAAAUAGUCUUGCGCUCAACCAGAAAGUCUGUAAUCAUUUUAAGGGUA

Variants of: B1
Experiment: self-cleavage, relative activity (ratio to wild type); higher = more cleavage; in vitro, sequencing; the parent is a self-cleaving ribozyme

Row | Variant | self-cleavage
1 | G31A U122C | 2.04
2 | A33C A91G | 1.57
3 | A30G U131C | 0.95
4 | A30G A36U | 1.32
5 | A30G A36G | 1.44
6 | A27U U37C | 1.42
7 | A33C A68U | 2.07
8 | A30G A67C | 1.15
9 | A33G A78U | 0.14
10 | G29A A66G | 1.59
11 | A30U U122C | 1.35
12 | A30G U102C | 1.21
13 | A30G U102A | 0.78
14 | A33G A96C | 0.76
15 | A33G A96U | 1.14
16 | G31A U103C | 0.46
17 | A33C U87A | 1.18
18 | A30U A134G | 1.06
19 | A30G U38G | 1.4
20 | A30U A95G | 0.89
21 | G29U A78G | 0.24
22 | G29U A78U | 0.35
23 | A30G U132G | 0.69
24 | C32A G79A | 0.17

Row | Variant | self-cleavage
25 | A30U U130C | 0.34
26 | C32U A64G | 1.66
27 | A30G A64U | 0.3
28 | A30G A64C | 1.38
29 | A33G A94G | 0.75
30 | A30G A114G | 0.23
31 | A30G A114U | 0.05
32 | A30G A95G | 0.44
33 | G28U A89U | 2.26
34 | A33G A67G | 1.06
35 | A30U U131C | 1.07
36 | G31A U70A | 1.73
37 | A30G A52U | 1.62
38 | G28A A64G | 1.4
39 | G31A A52G | 2.05
40 | A30U U87C | 0.96
41 | G31C U122A | 1.89
42 | A30C U132C | 1.12
43 | A30G U97C | 1.23
44 | A30U A47G | 0.97
45 | G28U A52G | 1.37
46 | A27U U130C | 1.07
47 | A30G C113U | 0.07
48 | A30U A91U | 0.83

Row | Variant | self-cleavage
49 | G31U U133C | 2.47
50 | C32U U124C | 1.15
51 | A30G C121A | 2.31
52 | G31A C32U | 1.42
53 | A30G U87A | 0.88
54 | A33G A140U | 0.97
55 | A33G A140G | 1.26
56 | G28A A140G | 2
57 | C32U A54G | 1.37
58 | A30G A129G | 1.02
59 | A30G G74C | 0.34
60 | A30G C32U | 0.93
61 | A27U G44U | 2.13
62 | A27U A64G | 1.58
63 | A30G A117G | 1.48
64 | G29A A129G | 1.59
65 | G31A A51G | 1.64
66 | A30U G73U | 0.17
67 | A33G A92G | 1.01
68 | A33G A92C | 0.81
69 | C32U U139C | 1.64
70 | A33G A62U | 0.76
71 | A33G A62G | 1.11
72 | A30G A118G | 1.2

Row | Variant | self-cleavage
73 | A30G A118U | 0.62
74 | A33G A52U | 1.42
75 | A33G A52G | 0.91
76 | C32U U87C | 1.36
77 | G29A A134G | 0.51
78 | A30U A78U | 0.2
79 | A30G A62G | 1.07
80 | A30G A62U | 1.29
81 | A33C U57A | 1.1
82 | A33C C46U | 1.3
83 | A30U A89U | 1.55
84 | G29A A67G | 1.29
85 | A30U A111G | 0.02
86 | A30G U70C | 0.75
87 | A30G A54U | 1.33
88 | A30G U37C | 0.98
89 | A30G U37A | 1.7
90 | G31C A125G | 0.93
91 | G28A U124C | 0.6
92 | C32U A117U | 0.3
93 | C32U U39C | 1.47
94 | G31C A55U | 1.76
95 | G29A A78C | 0.33
96 | G29A A78U | 0.14

Row | Variant | self-cleavage
97 | A30G A110U | 1.1
98 | G29A C40A | 1.82
99 | G29A A47G | 0.87
100 | A30C A64U | 0.92
101 | C32U A63G | 1.39
102 | A27U U57C | 1.25
103 | C32U A96G | 0.99
104 | G29A A33G | 0.88
105 | C32G A95G | 1.87
106 | G28C U130C | 0.64
107 | A30G A55U | 1.44
108 | A33G A126U | 0.86
109 | A33G A126C | 0.86
110 | A33G A135G | 0.69
111 | A30G G53C | 1.95
112 | A33G A95G | 1.48
113 | A27U U132C | 1.39
114 | G28U A69G | 1.57
115 | A30G A92U | 0.71
116 | A30G A92G | 1.05
117 | G29A U108C | 0.03
118 | C32U A89G | 0.89
119 | A30G A47G | 0.71
120 | A30G A47C | 1.21

Row | Variant | self-cleavage
121 | A30G U49C | 1.07
122 | A30U A59U | 1.6
123 | G28A C88U | 2.33
124 | C32U C105U | 0.18
125 | A33G A51C | 0.52
126 | A33G A51U | 0.82
127 | A33G A51G | 0.75
128 | A30U A68G | 1.62
129 | G31C A90G | 1.73
130 | A30U A92G | 0.91
131 | A30G U103C | 1.09
132 | A30G U57G | 1.24
133 | A30G U57A | 1.15
134 | A33G C113A | 0.01
135 | A30G G31C | 2
136 | G28A U120C | 1.28
137 | A30C G75C | 0.12
138 | A30G C85U | 0.69
139 | A27U A114U | 0.14
140 | A33G U37A | 1.02
141 | A33G U37C | 0.74
142 | A33C A63G | 1.98
143 | C32U A118G | 1.44
144 | G28A A33G | 0.69

Row | Variant | self-cleavage
145 | A33G A129G | 0.35
146 | A33G A129U | 0.39
147 | A30U A62G | 1.16
148 | A30G A60G | 0.96
149 | G29U A62G | 1.65
150 | A30G G115U | 0.21
151 | G28U A30G | 1.48
152 | A30C A36G | 2.26
153 | A30G G104A | 0.08
154 | A30U U108C | 0.02
155 | A27U A62G | 1.61
156 | G31A A91U | 1.99
157 | A33G A134G | 0.52
158 | A33G C77U | 1.59
159 | A30G U127C | 0.97
160 | A27U U139C | 1.56
161 | A27U U38C | 1.83
162 | G28A U70A | 1.02
163 | A30G U108C | 0.02
164 | A33G A59G | 0.98
165 | C32A U39C | 1.42
166 | A30G A51U | 1.46
167 | A30G C35A | 0.7
